The record followed here is article PMC4180030.

The target in this assay is dimeric oxygen-evolving photosystem II complex isolated from WT T. elongatus (Thermosynechococcus elongatus (endogenous in T. elongatus BP1)) (UniProt P0A444). Briefly: co-purification by two-step anion-exchange chromatography, immunoblotting; PSII complexes isolated from WT T. elongatus membranes (Kern et al. 2005); semi-quantitative immunoblotting of thylakoids and PSII against recombinant protein standards. For orientation: Immunoblotting shows a protein as a band on a membrane.

B1: CyanoQ (Tll2057) from Thermosynechococcus elongatus (natural protein)
chain: CGGPSATTPPPPTYSELQITRIQDYLRDIEKNAERFADLEVSVAKGDWQEARNIMRGPLGEMLMDMRALNRNLLAKDQPTPTALTRALTDDFLKIDQGADLDSVTVAQEGFREAEADFKAYLNSLPELS
With B1, the stoichiometry N (CyanoQ per PSII monomer) was found to be 0.4.
